Measurements: patent publication US10335489B2, “Injectable solution at pH 7 comprising at least one basal insulin the pi of which is between 5.8 and 8.5 and a substituted co-polyamino acid” (ADOCIA, priority 2012, dated 2019)

Assay: Precipitation of insulin glargine on addition to PBS/BSA mixture simulating the subcutaneous medium, centrifugation, RP-HPLC assay of supernatant
Format: physicochemical
Conditions: co-polyamino acid 1/insulin glargine/prandial insulin 75/25 composition added to 2 ml PBS/BSA
Description: The PBS/BSA mixture simulates the composition of the subcutaneous medium.
Centrifugation at 4000 rpm is carried out in order to separate the precipitate from the supernatant.
(§1) The PBS/BSA mixture simulates the composition of the subcutaneous medium. A precipitate appears.
as §1
This composition is added to 2 ml of PBS containing 20 mg/ml of BSA (bovine serum albumin). The PBS/BSA mixture simulates the composition of the subcutaneous medium. A precipitate appears. Centrifugation at 4000 rpm is carried out in order to separate the precipitate from the supernatant. […]
The PBS/BSA mixture simulates the composition of the subcutaneous medium. A precipitate appears. Centrifugation at 4000 rpm is carried out in order to separate the precipitate from the supernatant.
as §1

For “Human insulin (ActRapid ®): commercial solution of human insulin at 100 IU/ml”, which “Precipitation of insulin glargine” value is on record?
The value was “yes”.
